Test results: patent US20140087995A1 (published 2014)
Numbered stars: 1 amine (or outer) side, 2 acyl side, 3 side chain; on linkers, the order of the positions; unused ones are H or OH. Bridge positions count the residues as written; N and C are the ends. Side chains are listed from the residue outwards. Ends that are not written are not given here. * marks the point of attachment. C20 diacid = O=C(O)CCCCCCCCCCCCCCCCCCC(=O)*; γGlu = O=C(O)[C@H](CCC(=O)[*:2])N[*:1]; AEEA = NCCOCCOCC(=O)O

T1: human calcitonin receptor (human, UniProt P30988 25-474)
T1 construct: whole, on cells; membranes of stably transfected BHK cells (Assay VII); also called hCTR; hCT
T1 sequence (looked up): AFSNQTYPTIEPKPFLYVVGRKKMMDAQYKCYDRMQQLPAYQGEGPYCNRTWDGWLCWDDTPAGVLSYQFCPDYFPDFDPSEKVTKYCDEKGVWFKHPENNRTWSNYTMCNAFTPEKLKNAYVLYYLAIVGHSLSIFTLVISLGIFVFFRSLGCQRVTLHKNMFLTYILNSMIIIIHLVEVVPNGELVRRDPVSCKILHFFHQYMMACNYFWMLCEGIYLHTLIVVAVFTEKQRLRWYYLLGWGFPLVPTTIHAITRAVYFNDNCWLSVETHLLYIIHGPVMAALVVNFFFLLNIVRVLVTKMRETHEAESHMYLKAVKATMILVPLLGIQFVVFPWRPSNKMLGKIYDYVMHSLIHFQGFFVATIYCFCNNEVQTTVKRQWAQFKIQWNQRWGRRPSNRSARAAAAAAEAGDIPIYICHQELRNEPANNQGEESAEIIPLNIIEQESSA

T2: rat calcitonin receptor (rat, UniProt P32214 25-516)
T2 construct: whole, on cells; membranes of transiently transfected BHK tk'ts 13 cells (Assay VIII); also called rCTR; rat calcitonin (a) receptor
T2 sequence (looked up): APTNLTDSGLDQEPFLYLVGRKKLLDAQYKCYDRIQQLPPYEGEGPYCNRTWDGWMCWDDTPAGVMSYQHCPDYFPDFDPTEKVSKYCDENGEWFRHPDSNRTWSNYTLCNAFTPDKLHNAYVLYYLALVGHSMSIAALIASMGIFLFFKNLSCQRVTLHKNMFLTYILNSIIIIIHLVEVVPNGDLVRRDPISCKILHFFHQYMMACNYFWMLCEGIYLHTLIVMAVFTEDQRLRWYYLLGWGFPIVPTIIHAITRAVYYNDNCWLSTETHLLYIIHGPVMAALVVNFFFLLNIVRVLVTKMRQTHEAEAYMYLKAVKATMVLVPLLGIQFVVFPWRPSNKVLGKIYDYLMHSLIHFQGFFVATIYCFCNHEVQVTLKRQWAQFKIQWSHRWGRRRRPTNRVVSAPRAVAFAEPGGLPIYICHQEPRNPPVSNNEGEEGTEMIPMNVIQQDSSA

T3: rat amylin receptor (rat calcitonin receptor + rat RAMP 3) (rat, UniProt P32214 25-516; Q9JJ73 23-147)
T3 construct: whole, on cells; membranes of transiently transfected BHK tk'ts 13 cells (Assay VI); also called rAmylin-R; rat amylin 3(a) receptor
T3 sequence (looked up) 1: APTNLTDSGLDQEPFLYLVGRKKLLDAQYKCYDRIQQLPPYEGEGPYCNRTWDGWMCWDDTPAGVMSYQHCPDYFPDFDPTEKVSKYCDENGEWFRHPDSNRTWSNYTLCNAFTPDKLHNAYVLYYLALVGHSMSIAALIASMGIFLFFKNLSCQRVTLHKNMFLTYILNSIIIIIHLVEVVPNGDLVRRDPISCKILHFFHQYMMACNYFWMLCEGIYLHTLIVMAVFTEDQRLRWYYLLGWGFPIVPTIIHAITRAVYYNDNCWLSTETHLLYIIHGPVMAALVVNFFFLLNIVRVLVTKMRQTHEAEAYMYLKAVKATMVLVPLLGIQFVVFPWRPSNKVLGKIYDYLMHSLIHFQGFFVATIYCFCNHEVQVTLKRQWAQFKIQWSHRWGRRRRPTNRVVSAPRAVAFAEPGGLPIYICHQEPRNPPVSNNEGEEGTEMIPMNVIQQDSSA
T3 sequence (looked up) 2: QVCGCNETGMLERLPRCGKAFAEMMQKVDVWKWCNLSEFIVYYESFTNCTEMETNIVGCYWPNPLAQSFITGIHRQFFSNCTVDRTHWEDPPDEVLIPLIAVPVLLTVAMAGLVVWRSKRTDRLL

T4: rat calcitonin receptor (rat, UniProt P32214 25-516)
T4 construct: whole, on cells; Cell membranes of transiently transfected BHK tk'ts 13 cells (Assay VIII); also called rCTR; rCT
T4 sequence (looked up): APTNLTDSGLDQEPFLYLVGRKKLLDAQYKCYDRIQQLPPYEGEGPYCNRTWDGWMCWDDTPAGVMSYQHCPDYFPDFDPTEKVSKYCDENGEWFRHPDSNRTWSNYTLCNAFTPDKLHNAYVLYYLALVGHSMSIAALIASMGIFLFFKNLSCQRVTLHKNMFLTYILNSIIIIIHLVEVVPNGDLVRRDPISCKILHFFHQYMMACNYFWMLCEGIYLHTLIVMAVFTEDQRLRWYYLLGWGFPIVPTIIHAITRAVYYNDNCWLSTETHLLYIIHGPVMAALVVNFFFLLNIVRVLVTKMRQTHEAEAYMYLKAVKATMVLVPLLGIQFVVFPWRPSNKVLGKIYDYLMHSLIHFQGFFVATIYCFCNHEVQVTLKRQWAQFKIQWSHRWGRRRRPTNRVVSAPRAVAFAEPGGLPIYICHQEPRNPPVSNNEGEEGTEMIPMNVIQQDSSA

T5: rat amylin receptor (rat calcitonin receptor + rat RAMP 3) (rat, UniProt P32214 25-516; Q9JJ73 23-147)
T5 construct: whole, on cells; Cell membranes of transiently transfected BHK tk'ts 13 cells (Assay VI); also called rAmylin-R; rat amylin 3(a) receptor
T5 sequence (looked up) 1: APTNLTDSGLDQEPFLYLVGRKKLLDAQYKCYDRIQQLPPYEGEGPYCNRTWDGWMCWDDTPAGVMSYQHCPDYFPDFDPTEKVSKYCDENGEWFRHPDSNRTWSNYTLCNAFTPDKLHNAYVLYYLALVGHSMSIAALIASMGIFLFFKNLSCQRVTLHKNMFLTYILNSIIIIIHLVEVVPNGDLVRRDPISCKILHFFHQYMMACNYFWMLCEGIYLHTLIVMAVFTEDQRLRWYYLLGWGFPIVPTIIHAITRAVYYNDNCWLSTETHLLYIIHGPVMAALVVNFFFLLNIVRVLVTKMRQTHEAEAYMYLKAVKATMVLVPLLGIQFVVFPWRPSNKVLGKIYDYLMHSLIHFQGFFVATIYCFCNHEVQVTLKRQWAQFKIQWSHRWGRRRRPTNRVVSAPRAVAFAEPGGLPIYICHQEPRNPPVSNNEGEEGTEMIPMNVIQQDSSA
T5 sequence (looked up) 2: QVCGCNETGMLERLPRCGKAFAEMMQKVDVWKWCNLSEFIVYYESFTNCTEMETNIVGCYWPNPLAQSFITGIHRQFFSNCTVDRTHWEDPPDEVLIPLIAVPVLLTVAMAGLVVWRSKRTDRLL


Key:
[1] = target: T1, human calcitonin receptor; test: IC50 on human calcitonin receptor divided by IC50 on human amylin receptor (SPA competition)
Summary of the method: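 Competition binding by SPA with cell membranes (35 ng/μL) and SPA beads in 50 mM Hepes pH 7.4 with 1 mM CaCl2, 5 mM MgCl2, 0.1% OA and 0.02% Tween20. Incubated 120 min at 25 °C with shaking, then counted.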

rat calcitonin receptor [2] = target: T2, rat calcitonin receptor; test: SPA competition with 125I-calcitonin, membranes of BHK cells with rat calcitonin receptor (Assay VIII)
rat calcitonin receptor [3] = target: T2, rat calcitonin receptor; test: IC50 on rat calcitonin receptor divided by IC50 on rat amylin receptor (SPA competition)
[4] = target: T3, rat amylin receptor (rat calcitonin …); test: SPA competition with 125I-rat amylin, membranes of BHK cells with rat calcitonin receptor + rat RAMP3 (Assay VI)
rat calcitonin receptor [5] = target: T4, rat calcitonin receptor; test: SPA competition vs 125I-calcitonin, membranes with rat CTR (Assay VIII)
[6] = target: T5, rat amylin receptor (rat calcitonin …); test: SPA competition vs 125I-rat amylin, membranes with rat CTR + rat RAMP3 (Assay VI)

Ratio hCT/hAmylin binding [1]	IC50 (rat calcitonin receptor [2]) [nM]	Ratio rCT/rAmylin binding (rat calcitonin receptor [3])	IC50 [4] [nM]	IC50 (rat calcitonin receptor [5]) [nM]	IC50 [6] [nM]	Binder
69.7	112	201	0.558	–	–	K([γGlu-C20 diacid])CNTATCATQRLANFLRHSSPNFGAIPSSTNVGSNTY-NH2 (disulfide 2-7 (inferred), analogue of human amylin; also called compound 48) [N^ε1-[(4S)-4-carboxy-4-(19-carboxynonadecanoylamino)butanoyl]-[Arg17,Pro21,Pro27]-h-amylin]
–	–	–	–	38	0.383	K([AEEA-γGlu-C20 diacid])CNTATCATQRLANFLRHSSPNFGAIPSSTNVGSRTY-NH2 (disulfide 2-7; N-terminus assumed; SMILES CC[C@H](C)[C@H](NC(=O)[C@H](C)NC(=O)CNC(=O)[C@H](Cc1ccccc1)NC(=O)[C@H](CC(N)=O)NC(=O)[C@@H]1CCCN1C(=O)[C@H](CO)NC(=O)[C@H](CO)NC(=O)[C@H](Cc1c[nH]cn1)NC(=O)[C@H](CCCNC(=N)N)NC(=O)[C@H](CC(C)C)NC(=O)[C@H](Cc1ccccc1)NC(=O)[C@H](CC(N)=O)NC(=O)[C@H](C)NC(=O)[C@H](CC(C)C)NC(=O)[C@H](CCCNC(=N)N)NC(=O)[C@H](CCC(N)=O)NC(=O)[C@@H](NC(=O)[C@H](C)NC(=O)[C@@H]1CSSC[C@H](NC(=O)[C@@H](N)CCCCNC(=O)COCCOCCNC(=O)CC[C@H](NC(=O)CCCCCCCCCCCCCCCCCCC(=O)O)C(=O)O)C(=O)N[C@@H](CC(N)=O)C(=O)N[C@@H]([C@@H](C)O)C(=O)N[C@@H](C)C(=O)N[C@@H]([C@@H](C)O)C(=O)N1)[C@@H](C)O)C(=O)N1CCC[C@H]1C(=O)N[C@@H](CO)C(=O)N[C@@H](CO)C(=O)N[C@H](C(=O)N[C@@H](CC(N)=O)C(=O)N[C@H](C(=O)NCC(=O)N[C@@H](CO)C(=O)N[C@@H](CCCNC(=N)N)C(=O)N[C@H](C(=O)N[C@@H](Cc1ccc(O)cc1)C(N)=O)[C@@H](C)O)C(C)C)[C@@H](C)O, Acylated analogue of human amylin; also called compound 38)
